The source of these data is patent US11230591.

Experiment [1] has as its target recombinant pentameric gH complex (Towne strain) (human cytomegalovirus, Towne strain) (UniProt P17176). Kind of experiment: BLI competition on His-pentamer; competitor (antibody 2): 3-15.
Experiment [2] has the same target. Kind of experiment: BLI competition on His-pentamer; competitor (antibody 2): 1-103.
The target is the same in experiment [3]. In words: BLI competition on His-pentamer; competitor (antibody 2): 316.2.
For experiment [4] the target is unchanged. Kind of experiment: BLI competition on His-pentamer; competitor (antibody 2): 276.1.
The target is the same in experiment [5]. In words: BLI competition on His-pentamer; competitor (antibody 2): 124.4.
Experiment [6] shares this target. Kind of experiment: BLI competition on His-pentamer; competitor (antibody 2): 1-85.
The target is the same in experiment [7]. In words: BLI competition on His-pentamer; competitor (antibody 2): 324.4.
In experiment [8] the target is pentameric gH complex on infectious CMV (neutralization assays) (human cytomegalovirus). In words: cell-based or functional assay.
For experiment [9], the target named is recombinant pentameric gH complex (Towne strain) (human cytomegalovirus, Towne strain) (UniProt P17176). Kind of experiment: BLI competition on His-pentamer; competitor (antibody 2): 270.7.
For experiment [10] the target is unchanged. Kind of experiment: BLI competition on His-pentamer; competitor (antibody 2): 1-150.
The target is the same in experiment [11]. Kind of experiment: BLI competition on His-pentamer; competitor (antibody 2): 70.7.
The target is the same in experiment [12]. Kind of experiment: BLI competition on His-pentamer; competitor (antibody 2): 57.4.
Experiment [13] has the same target. In words: BLI competition on His-pentamer; competitor (antibody 2): 1-32.
Experiment [14] shares this target. In words: BLI competition on His-pentamer; competitor (antibody 2): 2-25.
Experiment [15] shares this target. In words: BLI competition on His-pentamer; competitor (antibody 2): 3-16.
The target is the same in experiment [16]. Kind of experiment: BLI competition on His-pentamer; competitor (antibody 2): 3-7.
The target is the same in experiment [17]. Kind of experiment: BLI competition on His-pentamer; competitor (antibody 2): 2-18.
For experiment [18], the target named is CMV virions. Kind of experiment: virion ELISA.

recombinant pentameric gH complex (Towne strain) (human cytomegalovirus, Towne strain), sequence (P17176 30-715, one chain of several): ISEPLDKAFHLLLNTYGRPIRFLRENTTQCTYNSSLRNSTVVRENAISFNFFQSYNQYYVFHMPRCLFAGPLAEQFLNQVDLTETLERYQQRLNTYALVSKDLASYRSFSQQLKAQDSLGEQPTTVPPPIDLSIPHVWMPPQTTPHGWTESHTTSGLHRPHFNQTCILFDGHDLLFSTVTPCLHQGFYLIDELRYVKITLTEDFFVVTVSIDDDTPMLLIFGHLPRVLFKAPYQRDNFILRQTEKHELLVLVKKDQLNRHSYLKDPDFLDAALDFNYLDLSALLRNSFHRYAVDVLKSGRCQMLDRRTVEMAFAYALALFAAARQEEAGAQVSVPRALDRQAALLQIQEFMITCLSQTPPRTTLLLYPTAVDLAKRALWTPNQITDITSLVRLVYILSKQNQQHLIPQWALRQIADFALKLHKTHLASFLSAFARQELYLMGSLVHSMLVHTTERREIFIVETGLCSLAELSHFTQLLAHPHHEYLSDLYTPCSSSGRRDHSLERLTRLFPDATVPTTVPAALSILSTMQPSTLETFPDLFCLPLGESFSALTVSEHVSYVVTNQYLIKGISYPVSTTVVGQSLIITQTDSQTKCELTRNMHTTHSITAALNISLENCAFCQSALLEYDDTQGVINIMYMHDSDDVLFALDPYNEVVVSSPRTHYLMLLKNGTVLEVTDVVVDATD

B1: 2-25 (antibody, V domains shown)
VH: QVQLVESGAEVKKPGALVKVSCKASGYTFTNYAIHWVRQASGQRLEWMGWINAGRGNTKYSQKFQGRVTITRDTSASTAYMELSSLRSEDAAVYFCARDESTGDYYYYMDVWGKGTTVTVSS
VL: SYELTQPPSVSVSPGQTASITCSGDRLDDKYASWYQQKAGQSPVLVIYQDNKRPSGIPERFSGSNSGNTATLTISGTQAMDEADYYCQAWDSDTYVFGTGTKVTVL
For the molecule B1, the Pair-wise inhibition (%) in experiment [1] is 10%; in experiment [2], -4%; in experiment [3], -1%; in experiment [4], -25%; in experiment [5], 1%; in experiment [6], 7%. In addition, the Pair-wise inhibition (%) was -4% in experiment [7]; -10% in experiment [9]; -17% in experiment [10]; 29% in experiment [11]; 15% in experiment [12]; 2% in experiment [13]. Also, the Pair-wise inhibition (%) amounted to 104% in experiment [14], 6% in experiment [15], 9% in [16] and 87% in experiment [17]. The same molecule had an EC50 Neutralizing in [8] of 0.09 ng/mL. Also, in experiment [8], the IC50 in ARPE-19 was found to be 0.08 ng/mL.

B2: 1-125 (antibody, V domains shown)
VH: QVQLVESGGGLVKPGGSLRLSCAPAGFNFKDYYMTWIRQAPGKGLEWVSFISSSGQTIYYADSVKGRFTISRDNARNSLYLQMNSLRAEDTAVYYCARDSYSKLVDIVAIEAFDLWGQGTLVSVSS
VL: SYELTQPPSVSVAPGKMARITCGGDNIGSKSVHWYQQRPGQAPVLVIRFDTDRPSRIPERFSGSNSGNTATLAISRVEAGDEADYYCQVWDSSSARLVFGGGTKLTVL
In experiment [8], B2 showed an EC50 Neutralizing of 0.9 ng/mL. The same molecule registered a concentration for a half-maximal effect (EC50) in experiment [18] of 1400 ng/mL.

B3: 3-7 (antibody, V domains shown)
VH: QVQLVQSGAEVKKPGASVKVSCKTSGYTFNTYAISWVRQAPGQGLEWVGWINTYSGSTKYAQKVQGRVTMTTDTSTSTAYMELRGLRSDDTAVYYCARDGYNWGFLDFWGQGSLVTVSS
VL: DIQMTQSPSSLSASVGDRVTITCRASQGISNYLAWYQQKPGKLPKLLIYAASTLQSGVPSRFSGSGSGTDFTLTISSLQPEDVASYYCQKYNSAPLTFGPGTKVDIK
In the case of B3, the Pair-wise inhibition (%) was determined as 102% in experiment [1]; 27% in experiment [2]; 21% in [3]; 12% in [4]; 35% in [5]; 35% in [6]. For the same molecule, the Pair-wise inhibition (%) was 14% in [7]; 16% in experiment [9]; -6% in [10]; 38% in experiment [11]; 20% in [12]; 10% in experiment [13]. Further, the Pair-wise inhibition (%) in [14] amounted to 44%; in [15] it was 97%; in experiment [16], 91%; in [17], 51%. Moreover, in experiment [8], the EC50 Neutralizing is 80 ng/mL. The molecule also had an IC50 in ARPE-19 in [8] of 9.5 ng/mL. The molecule further had an IC50 in MRC-5 in [8] of 19 ng/mL. Also, the concentration giving a half-maximal response (EC50) in [18] came to 70 ng/mL.

B4: 1-150 (antibody, V domains shown)
VH: QVQLVESGGGLVKPGGSLRLSCAASGFSFSAYYMSWIRQAPGKGLEWISYISSSGNTIYYTDSVKGRFTIARDNAKNSLYLQMNSLRAEDTGLYYCARDSYSKLADIEATEAFDVWGQGTMVAVSS
VL: SYELTQPPSVSVAPGKTARITCGGNNIGSKSVHWYQQKPGQAPVMVIYYDSDRPSGIPERFSGSNSGNTATLTISRVEAGDEADYYCQVWDSGSDRVVFGGGTKLTVL
For the molecule B4, the Pair-wise inhibition (%) in [1] is 6%; in experiment [2], 26%; in experiment [3], -22%; in experiment [4], -12%; in experiment [5], -22%; in [6], 61%. Further, the Pair-wise inhibition (%) in experiment [7] is -12%; in experiment [9] it was -29%; in [10] it was 104%; in experiment [11], -32%; in [12] it was -19%; in [13], -11%. In addition, the Pair-wise inhibition (%) was -22% in experiment [14], 2% in experiment [15], 0% in [16] and -10% in experiment [17]. Also, the EC50 Neutralizing in [8] stood at 1 ng/mL. The IC50 in ARPE-19 in experiment [8] turned out to be 0.31 ng/mL. This molecule also showed an IC50 in MRC-5 in experiment [8] of 260 ng/mL.

B5: 1-85 (antibody, V domains shown)
VH: QVHLVESGGGLVKPGRSLRLSCAASGFTFSDYYMAWIRQVPGKGLEWVSFISSSGRTIYYADSVKGRFTISRDNAKDSLYLQMHSLRAEDTAVYYCARDSYSKLVDIEAIEAFDIWGRGTMVTVSS
VL: SYELAQPPSVSVAPGKTATIACGGDNIGGKSVHWYLQKAGQAPVLVISYDSDRPSGIPERFSGSNSGNTATLTISRVEAGDEADYFCQVWDRHGDHVVFGGGTKLTVL
Turning to B5, the Pair-wise inhibition (%) in [1] is 33%; in [2] it was 27%; in experiment [3] it was 29%; in experiment [4] it was -2%; in experiment [5], 24%; in experiment [6], 87%. Moreover, the Pair-wise inhibition (%) in experiment [7] is 17%; in experiment [9], 27%; in experiment [10] it was 117%; in [11], 36%; in experiment [12] it was 29%; in [13] it was 16%. The Pair-wise inhibition (%) in [14] was -4%; in [15] it was 37%; in experiment [16], 27%; in [17], 14%. In [8], this molecule had an EC50 Neutralizing of 0.9 ng/mL. The molecule also returned an IC50 in ARPE-19 in experiment [8] of 0.13 ng/mL.

B6: 1-32 (antibody, V domains shown)
VH: QVKLVESGGGVVQPGRSLRLSCAGSGFAFDNYAMHWVRQAPGKGLEWVAVISLEGRNKYYAGPAKGRFSISRDNSRNTVHLQMNSLRPEDTAVYFCARDMRYYYDSNGHYRNRYGMDVWGQGTTVIVSS
VL: DIQMTQSPSSLSASVGDSVTITCQASQDINQFVSWYQQKPGKPPKLLIYDASNLESGVPSRFSGSGSGTHFTFTISSLQPDDIATYYCQQYENLFTFGPGTKVDIK
B6: the Pair-wise inhibition (%) is 7% in experiment [1]; 15% in experiment [2]; 78% in experiment [3]; -11% in experiment [4]; 7% in experiment [5]; 18% in [6]. For the same molecule, the Pair-wise inhibition (%) in experiment [7] turned out to be 6%; in [9] it was 97%; in experiment [10], 4%; in experiment [11] it was 87%; in [12], 57%; in experiment [13], 91%. Further, the Pair-wise inhibition (%) in [14] is -33%; in [15] it was 10%; in [16], 8%; in [17], -1%. Moreover, the EC50 Neutralizing in experiment [8] amounted to 20 ng/mL. The molecule further yielded an IC50 in ARPE-19 in experiment [8] of 0.82 ng/mL.
